Experimental data as given in PMC12593533, “Unravelling tandem repeat-mediated mutagenesis drive rapid diversification of KPC enzymes: emergence of blaKPC-263 and enhanced resistance to ceftazidime-avibactam” (eBioMedicine, 2025).

Tests used:
Test in all cases: purified protein
[1] = tested on: CC(C)(O/N=C(\C(=O)N[C@@H]1C(=O)N2C(C(=O)[O-])=C(C[n+]3ccccc3)CS[C@H]12)c1csc(N)n1)C(=O)O
[2] = tested on: C[C@@H](O)[C@H]1C(=O)N2C(C(=O)O)=C(SCCN=CN)C[C@H]12
[3] = tested on: C[C@@H](O)[C@H]1C(=O)N2C(C(=O)O)=C(S[C@@H]3CN[C@H](C(=O)N(C)C)C3)[C@H](C)[C@H]12

KPC-2 (Klebsiella pneumoniae)
Km [1]: 580 µM
kcat [1]: 42.9 s⁻¹
kcat/Km [1]: 74000 M⁻¹ s⁻¹
Km [2]: 380 µM
kcat [2]: 199 s⁻¹
kcat/Km [2]: 523000 M⁻¹ s⁻¹
Km [3]: 420 µM
kcat [3]: 112 s⁻¹
kcat/Km [3]: 268000 M⁻¹ s⁻¹
